Assay results: the supplement of paper PMC9170038

What was measured:
MS2 coat protein [1] = assay: apparent KD of MS2 coat protein, switch OFF state (with FMN for OFF switches, without FMN for ON switches); designed switch direction (-1 OFF switch, 1 ON switch): -1; higher = weaker reporter binding; settings: FMN input: 0 or 200 uM; Eterna round: R93 (includes R88 designs)
How it was run: (§1)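 Apparent KD was obtained for each design as the median of normalised binding-curve fits over its clusters. RNA switches transcribed on-chip from Illumina sequencing clusters were titrated with SNAP-549-labelled MS2 coat protein (twofold steps, 0.7 or 1.5 nM to 3 µM) in 100 mM Tris-HCl pH 7.5, 80 mM KCl, 4 mM MgCl2, without or with constant ligand.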

MS2 coat protein [2] = assay: apparent KD of MS2 coat protein, switch ON state; designed switch direction (-1 OFF switch, 1 ON switch): -1; higher = weaker reporter binding; settings: FMN input: 0 or 200 uM; Eterna round: R93 (includes R88 designs)
How it was run: as §1

Sequence | apparent KD of MS2 coat protein (MS2 coat protein [1]) [nM] | apparent KD of MS2 coat protein (MS2 coat protein [2]) [nM]
AAAAAGUGAGGAUAUGGAAAAAAAAAAAAAAAAAAAAAAAACCAGAAGGCACAUGAGGAUCACCCAUGUAAAAA [exclusive 2] | 30.9 | 38.6
AAAACGUGAGGAUAUGCACCAAAAAAGGUAAUUCGGGUACGACAUGAGGAUCACCCAUGUAGAAGGCACGAAAA [Frodo Flailing 12 - Jieux - Exclusion 2] | 28.7 | 29.9
AAAAAACAUGAGGAUCACCCAUGUGAGGAUAUCGCUAGUGAGGCCAUAGUGUCAGUGAUGAGAAGGCACAUAAA [Brourd 613 Mod 9 - Jieux - Exclusion 1] | 30.8 | 37.7
AAAAAGUCAGGAUAUCGGAAAAUAAAAAUAAAAAAAAAAAACGAGAAGGGACAUGAGGAUCACCCAUGUAUGAC [Mat - Exclusion 4 - Mayanna - D113] | 39 | 45.2
GCUUGUCAAGGAUAUACAUGAGGAUCACCCAUGUGAGAGAAAAAAGUGAGAAAGAAAAGUAGAAGGUGGUGAGG [salish99-ex3-78] | 46.6 | 33.3
AUCUACCUAGGAUAUACAUGAGGAUCACCCAUGUACAGUUUCAACUAGGGAAACUCACGUAGAAGGAGGUAGAU [JR_Exc003_Sub1209] | 25.2 | 48.2
AGCUAGUCAGGAUAUACGAACAUGUCACAAGACGUGAAGGGACAUGAGGAUCACCCAUGUAGAAGGGACUAGCA [74%, Web mod - With 1 more C's] | 203 | 52.9
AUAAAACAUGAGGAUCACCCAUGUGAGGAUAUCUGAAAAAAAAAAAGAAAAAAAAAAAAGAGAAGGCACAAUAA [Amethyst 44] | 79.4 | 65.1
AAAGGACGAGGAUAUACAUGAGGAUCACCCAUGUAAAAAGCAUAAUAAAAUAACUUAUGUAGAAGGCGUCCAAA [Mat - Exclusion 3 - Eli mod - D91] | 102 | 22
AAAACACAUGAGGAUCACCCAUGUUAGGAUAUCCACGCUACUAAUCCUAAACAAAGCGGGAGAAGGAACGUGGC [Xerereonan] | 17.5 | 20.9
AAAAAGGUAGGAUAUGCUAAAUAACAUGAAGAAUAAAUAAAACAUGAGGAUCACCCAUGUAGAAGGACCAAAAA [Ex 2 Tesla 1] | 20 | 25
AAAAAUGGAGGAUAUACAUGAGGAUCACCCAUGUGUAUAAAAAAAUACACAAAAGAAAGUAGAAGGCCAUAAAA [Ex 3 Ice] | 94.3 | 35
AAAAAGUGAGGAUAUUCGGAUAGGAAAACGAAAACCUAUCCGAAGAAGGCACAUGAGGAUCACCCAUGUGAAAG [Mat - Exaclusion 4 - Eli mod - D42] | 29.4 | 28
AAGAAGUCAGGAUAUCGAAAAGAAAAGAAAAGAAAAGAAAACGAGAAGGGACAUGAGGAUCACCCAUGUAAGAA [Smerdis] | 25.7 | 46.5
AAGAAUCGAGGAUAUACAUGAGGAUCACCCAUGUAAAAGAAAGAAGGGAAAGAGAAAAGUAGAAGGCGAAAGAA [Menkheperre Nekau I] | 27.7 | 22.6
AGCUAGUCAGGAUAUACGCAAACGAACGAAGCAGUGAAGGGACAUGAGGAUCACCCAUGUAGAAGGGACUAGCA [Diamond 30] | 75.5 | 26.8
AAUGUACGAGGAUAUACAUAGAUACAGAUACAUGUAGACGUACAUGAGGAUCACCCAUGUAGAAGGCGUAUAUA [Mat - Same state - Mayanna Mod - D113] | 172 | 82.8
AAAGGGCGAGGAUAUACAUGAGGAUCACCCAUGUAAAAAACAUAAUAAAAGAACUUAUGUAGAAGGCGUCCAAA [Meechl Ex3 2 R2 v2] | 321 | 52.8
AACUGACAUGAGGAUCACCCAUGUCAGGAUAUGCUUCAUAAAAAAAAAAAAAAAUGAUGCAGAAGGGACAUGAA [Design 25 :P Sub-opt 1] | 14.1 | 13
AUGGUACAUGAGGAUCACCCAUGUCAGGAUAUCGGCUAAAACGUAAAAAAAAUAAAAGCGAGAAGGGACUGCUC [EX1 Malc#18 Mod 8 - Jieux - Exclusion 1] | 28.3 | 24

Sequence | apparent KD of MS2 coat protein (MS2 coat protein [1]) [nM] | apparent KD of MS2 coat protein (MS2 coat protein [2]) [nM]
GAAAAACAUGAGGAUCACCCAUGUAAGGAUAUGCGAAAAUAAAAUAAAAUAAAAUAAAGCAGAAGGUACAAAAG [Mat - Exclusion 1 - Eli mod - D2] | 58.4 | 34.7
AAGAACGGAGGAUAUACAUGAGGAUCACCCAUGUAAAAGAAAGAAAAGGGAAAGAAAAGUAGAAGGCCGAAGAA [Djeserkare Amenhotep I] | 51.3 | 39.8
AAAAAGUGAGGAUAUGCGCUGUCAUGUAGACACGAGCAGUCGUAGAAGGCACAUGAGGAUCACCCAUGUUUAAA [EX4 Malc#24] | 20 | 31.9
AAAAAUCGAGGAUAUACAUGAGGAUCACCCAUGUUGGAAAACGAUUACACAAAAGAAAGUAGAAGGCGAUAAAA [Ex 3 May 21] | 24.7 | 16.5
GGAUGUCAAGGAUAUACAUGAGGAUCACCCAUGUGAGAGAAAAAAGUGAGAAAGAAAAGUAGAAGGUGGUGUCG [salish99-ex3-87] | 56.1 | 38.5
AACAGAACAGGAUAUACAUGAGGAUCACCCAUGUCACAACAAAGCAGCGCAACACAAAGUAGAAGGGUUAUGGA [Ruby 14] | 40.9 | 31.8
AAAAAACAUGAGGAUCACCCAUGUGAGGAUAUCUGUAUUCAAUCCUCGGAUUGAAUACAGAGAAGGCACAUGGG [Ex1: 609] | 14.2 | 13.9
AGUUGGCGAGGAUAUACAUGAGGAUCACCCAUGUGGAAGAAAAAAGUGAGAAAGAAAAGUAGAAGGCGCUGACA [Mat - Exclusion 3 - Lego mod - D87] | 316 | 67.5
AACAGGUCAGGAUAUGUGGAAAAAAUAAAAAAAAUAAAAACACAGAAGGGACAUGAGGAUCACCCAUGUAUAUA [May 21] | 53.4 | 89.4
AAGAAACAUGAGGAUCACCCAUGUCAGGAUAUCGAAGAAAGAAAGAAAGAAAGAAGAACGAGAAGGGACAAAGG [Gaius Iulius Aquila] | 60.4 | 44.4
AACAUGUAAGGAUAUUGAAGAAAAGAAAAGAAAGAAAAGAACAAGAAGGUACAUGAGGAUCACCCAUGUAAGAA [EteRNA is fun!] | 18.6 | 33.7
CUCUUGUCAGGAUAUCAAAGAAAAGAAGAGAAAGAAAAGAAUGAGAAGGGACAUGAGGAUCACCCAUGUAAGAA [EteRNA is fun!] | 51.7 | 48.1
AACAAGUGAGGAUAUCGGAAAUGUAAAUAAGUUUCACAAAACGAGAAGGCACAUGAGGAUCACCCAUGUAAAUA [JR_Exc004_Sub013] | 25.6 | 32.1
AAGUGCGCAGGAUAUACAUGAGGAUCACCCAUGUAAAGAAAAGAAAGAUCCGAAGAAAGUAGAAGGGCGUGCAA [Variant 1 of Mod 1 of Ex3 sub 3, by Tesla's Dusciple Round 1] | 209 | 49.6
AAAAAACAUGAGGAUCACCCAUGUGAGGAUAUGAACGAAAUAAAAUAAAAAUAAAAGUUCAGAAGGCACAAAAA [Mat - Exclusion 1 - Eli mod - D11] | 44.7 | 33.2
AAAAAACAUGAGGAUCACCCAUGUGAGGAUAUCGAUAUUAAAGACACCCACUUAAUGGCGAGAAGGCGCAAAAA [Brourd 613 Mod 20 - Jieux - Exclusion 1] | 26.5 | 25.4
AACAGUACAGGAUAUACAUGAGGAUCACCCAUGUGGGAAUUAAGUGGCGUACCACAAUGUAGAAGGGUACUGGA [JL In the Red] | 228 | 129
ACCUGACAUGAGGAUCACCCAUGUCAGGAUAUGACUUCGAAAAUAAAAUAAAACGAUGUCAGAAGGGACAUGGG [Design 71: Sub-opt PB] | 15.3 | 21.8
AAGAGUAGAGGAUAUAUAUGAAAAGAGUCGAAAGACUCAAAACAUGAGGAUCACCCAUGUAGAAGGCUACUCAA [Hyphema Seclusion mod] | 17.5 | 18.7
